The source of these data is the supplement of paper PMC11316812.

± gives the standard deviation of the averaged measurements.

For data set [1], the system named is MCF7. Kind of data set: percentage of EdU-negative (G0-arrested) nuclei per well, 72 h; higher = more G0 arrest. The settings on record: reference: sequence is the full UniProt precursor, the tested protein was the secreted form or ectodomain.
Data set [2] relates to hTERT-HMEC. The description is as above. To be noted: reference: sequence is the full UniProt precursor, the tested protein was the secreted form or ectodomain.
Setting [3] is: protein concentration 0.0075 µM.
[4] abbreviates: protein concentration 0.01625 µM.
[5] abbreviates: protein concentration 0.1625 µM.
The mark [6] stands for this setting: protein concentration 0.0185 µM.
Where [7] appears, read: protein concentration 0.0225 µM.
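Also: secreted proteins added to cultured cells, EdU pulse at the end, nuclei found by Hoechst imaging, EdU status from nuclear versus surrounding ring intensity ratio, PBS as neutral control.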

Consider “MYLVAGDRGLAGCGHLLVSLLGLLLLLARSGTRALVCLPCDESKCEEPRNCPGSIVQGVCGCCYTCASQRNESCGGTFGIYGTCDRGLRCVIRPPLNGDSLTEYEAGVCEDENWTDDQLLGFKPCNENLIAGCNIINGKCECNTIRTCSNPFEFPSQDMCLSALKRIEEEKPDCSKARCEVQFSPRCPEDSVLIEGYAPPGECCPLPSRCVCNPAGCLRKVCQPGNLNILVSKASGKPGECCDLYECKPVFGVDCRTVECPPVQQTACPPDSYETQVRLTADGCCTLPTRCECLSGLCGFPVCEVGSTPRIVSRGDGTPGKCCDVFECVNDTKPACVFNNVEYYDGDMFRMDNCRFCRCQGGVAICFTAQCGEINCERYYVPEGECCPVCEDPVYPFNNPAGCYANGLILAHGDRWREDDCTFCQCVNGERHCVATVCGQTCTNPVKVPGECCPVCEEPTIITVDPPACGELSNCTLTGKDCINGFKRDHNGCRTCQCINTEELCSERKQGCTLNCPFGFLTDAQNCEICECRPRPKKCRPIICDKYCPLGLLKNKHGCDICRCKKCPELSCSKICPLGFQQDSHGCLICKCREASASAGPPILSGTCLTVDGHHHKNEESWHDGCRECYCLNGREMCALITCPVPACGNPTIHPGQCCPSCADDFVVQKPELSTPSICHAPGGEYFVEGETWNIDSCTQCTCHSGRVLCETEVCPPLLCQNPSRTQDSCCPQCTDQPFRPSLSRNNSVPNYCKNDEGDIFLAAESWKPDVCTSCICIDSVISCFSESCPSVSCERPVLRKGQCCPYCIEDTIPKKVVCHFSGKAYADEERWDLDSCTHCYCLQGQTLCSTVSCPPLPCVEPINVEGSCCPMCPEMYVPEPTNIPIEKTNHRGEVDLEVPLWPTPSENDIVHLPRDMGHLQVDYRDNRLHPSEDSSLDSIASVVVPIIICLSIIIAFLFINQKKQWIPLLCWYRTPTKPSSLNNQLVSVDCKKGTRVQVDSSQRMLRIAEPDARFSGFYSMQKQNHLQADNFYQTV [Q9NZV1]”, for which the “percentage of EdU-negative” value is 24.3 ± 2.8% in data set [1] (setting [3]), 25.9 ± 0.87% in data set [1] (protein concentration 0.075 µM), 4.66 ± 0.59% in data set [2] (setting [3]) and 5.81 ± 1.6% in data set [2] (protein concentration 0.075 µM).
In the case of “MKLALLLPWACCCLCGSALATGFLYPFSAAALQQHGYPEPGAGSPGSGYASRRHWCHHTVTRTVSCQVQNGSETVVQRVYQSCRWPGPCANLVSYRTLIRPTYRVSYRTVTVLEWRCCPGFTGSNCDEECMNCTRLSDMSERLTTLEAKVLLLEAAERPSSPDNDLPAPESTPPTWNEDFLPDAIPLAHPVPRQRRPTGPAGPPGQTGPPGPAGPPGSKGDRGQTGEKGPAGPPGLLGPPGPRGLPGEMGRPGPPGPPGPAGNPGPSPNSPQGALYSLQPPTDKDNGDSRLASAIVDTVLAGVPGPRGPPGPPGPPGPRGPPGPPGTPGSQGLAGERGTVGPSGEPGVKGEEGEKAATAEGEGVQQLREALKILAERVLILEHMIGIHDPLASPEGGSGQDAALRANLKMKRGGAQPDGVLAALLGPDPGQKSVDQASSRK [Q96A83]”, the “percentage of EdU-negative” value is 26.9 ± 1.4% in data set [1] (setting [4]), 25.1 ± 1.8% in data set [1] (setting [5]), 4.63 ± 0.36% in data set [2] (setting [4]) and 7.44 ± 3.3% in data set [2] (setting [5]).
For the sequence “MAALLLGAVLLVAQPQLVPSRPAELGQQELLRKAGTLQDDVRDGVAPNGSAQQLPQTIIIGVRKGGTRALLEMLSLHPDVAAAENEVHFFDWEEHYSHGLGWYLSQMPFSWPHQLTVEKTPAYFTSPKVPERVYSMNPSIRLLLILRDPSERVLSDYTQVFYNHMQKHKPYPSIEEFLVRDGRLNVDYKALNRSLYHVHMQNWLRFFPLRHIHIVDGDRLIRDPFPEIQKVERFLKLSPQINASNFYFNKTKGFYCLRDSGRDRCLHESKGRAHPQVDPKLLNKLHEYFHEPNKKFFELVGRTFDWH”, the “percentage of EdU-negative” value in data set [1] (setting [6]) is 21.85 ± 0.18%; in data set [1] (protein concentration 0.185 µM), 26.7 ± 1.6%; in data set [2] (setting [6]) it was 4.41 ± 0.35%; in data set [2] (protein concentration 0.185 µM), 11.85 ± 0.08%.
Take “MARRSRHRLLLLLLRYLVVALGYHKAYGFSAPKDQQVVTAVEYQEAILACKTPKKTVSSRLEWKKLGRSVSFVYYQQTLQGDFKNRAEMIDFNIRIKNVTRSDAGKYRCEVSAPSEQGQNLEEDTVTLEVLVAPAVPSCEVPSSALSGTVVELRCQDKEGNPAPEYTWFKDGIRLLENPRLGSQSTNSSYTMNTKTGTLQFNTVSKLDTGEYSCEARNSVGYRRCPGKRMQVDDLNISGIIAAVVVVALVISVCGLGVCYAQRKGYFSKETSFQKSNSSSKATTMSENDFKHTKSFII”: the “percentage of EdU-negative” value in data set [1] (setting [7]) amounted to 24.2 ± 0.62%; in data set [1] (protein concentration 0.225 µM), 25.4 ± 2.1%; in data set [2] (setting [7]), 5.13 ± 0.27%; in data set [2] (protein concentration 0.225 µM) it was 4.52 ± 0.093%.
As to “MSGGRAPAVLLGGVASLLLSFVWMPALLPVASRLLLLPRVLLTMASGSPPTQPSPASDSGSGYVPGSVSAAFVTCPNEKVAKEIARAVVEKRLAACVNLIPQITSIYEWKGKIEEDSEVLMMIKTQSSLVPALTDFVRSVHPYEVAEVIALPVEQGNFPYLQWVRQVTESVSDSITVLP”, the “percentage of EdU-negative” value in data set [1] (setting [7]) was found to be 25.3 ± 1.7%; in data set [1] (protein concentration 0.225 µM), 25.2 ± 1.5%; in data set [2] (setting [7]) it was 4.5 ± 0.32%; in data set [2] (protein concentration 0.225 µM) it was 5.97 ± 0.34%.
As for “MPAVFMLASSSALQCGRGVPRFPRTEVGAGHSVNEETKAEKVGNQTSVIPATSRQAALGTSWTQRRTQPLQERSHWHPRGNNASGMGGHRMFPGPLRGPAAQVLENECGSLGRAAEGRS [Q8N2X6]”, the “percentage of EdU-negative” value stood at 24.5 ± 1.8% in data set [1] (setting [7]), 24.7 ± 0.9% in data set [1] (protein concentration 0.225 µM), 4.66 ± 0.059% in data set [2] (setting [7]) and 4.77 ± 0.18% in data set [2] (protein concentration 0.225 µM).
